In US20230272011A1 (AVACTA LIFE SCIENCES, published 2023):
Each block holds one binder with its values, some of them ahead of it.

Assays:
mouse serum albumin [1] = biological target: T1, mouse serum albumin (mouse, UniProt P07724 25-608); test: BLI (Octet), biotinylated albumin on SA sensor, pH 6.0
T1 construct: also called MSA
Experimental: (§1) Biotinylated antigen was captured onto SA sensors at 1 μg/ml for 600 seconds in a buffer comprising PBS-T (0.01% Tween 20)+1% casein at either pH 6.0 or 7.4. Association was carried out for 300 seconds and dissociation for 600 seconds, and regeneration was performed using 10 mM glycine pH 1.5 (GE Healthcare) for 3×5 seconds. All steps were carried out at 1000 rpm and 25° C. Purified AFFIMER® polypeptide in two-fold serial dilutions was analyzed at a starting concentration of approximately 10× K_{D value}. Kinetics analyses were carried out using the Octet data analysis software, subtracting the reference sensor (loaded with antigen), aligning the Y-axis to baseline, and using inter-step correction to align association to dissociation. Savitzky-Golay filtering was applied and the data processed. Analysis of the data was carried out with a 1:1 model, global fit, Rₘₐₓ unlinked by sensor.

human serum albumin [2] = biological target: T2, human serum albumin (human, UniProt P02768 25-609); test: as above
T2 construct: mature; Bought protein; biotinylated in the Octet and HTRF assays; also called HSA; HuSA
Experimental: as §1

cynomolgus serum albumin [3] = biological target: T3, cynomolgus serum albumin (cynomolgus); test: as above
T3 construct: also called CSA; cyno serum albumin
Experimental: as §1

mouse serum albumin [4] = biological target: T1, mouse serum albumin; test: Octet biolayer interferometry, biotinylated albumin on SA sensors, pH 6.0
Experimental: as §1

human serum albumin [5] = biological target: T2, human serum albumin; test: as above
Experimental: as §1

cynomolgus serum albumin [6] = biological target: T3, cynomolgus serum albumin; test: as above
Experimental: as §1

mouse serum albumin [7] = biological target: T1, mouse serum albumin; test: BLI (Octet), biotinylated albumin on SA sensor, pH 7.4
Experimental: as §1

human serum albumin [8] = biological target: T2, human serum albumin; test: as above
Experimental: as §1

cynomolgus serum albumin [9] = biological target: T3, cynomolgus serum albumin; test: as above
Experimental: as §1

rat serum albumin = rat serum albumin (rat, UniProt P02770 25-608); test: binding ELISA, coated albumin, pH 7.4
Experimental: (§2) Briefly, ELISA was performed as follow:
(§3) Human (Sigma-Aldrich); Cynomolgus and Mouse (Abcam); Equine (Abcam); Canine (Abcam); Mouse (Sigma-Aldrich); Rabbit (Sigma-Aldrich); Porcine (Sigma-Aldrich);, and Rat (Sigma-Aldrich) serum albumin were coated overnight on 96 well plates (Corning Costar) at 1 μg/ml in PBS at the appropriate pH (pH 6.0 or 7.4). Plates were saturated using 5% Casein (Sigma-Aldrich) buffer in PBS. […] Plates were then washed and AFFIMER® proteins were detected using a biotinylated polyclonal antibody anti-Cystatin (R&D System) for 90 minutes. After washing, streptavidin-HRP (Thermo Fisher Scientific) was added and incubated for 30 minutes.

human serum albumin [10] = biological target: T2, human serum albumin; test: binding ELISA, coated albumin, pH 7.4
Experimental: as §2, §3

canine serum albumin [11] = biological target: T4, canine serum albumin (canine, UniProt P49822 25-608); test: binding ELISA, coated albumin, pH 7.4
Experimental: as §2, §3

cynomolgus serum albumin [12] = biological target: T3, cynomolgus serum albumin; test: binding ELISA, coated albumin, pH 7.4
Experimental: as §2, §3

rabbit serum albumin = rabbit serum albumin (rabbit, UniProt P49065 25-608); test: binding ELISA, coated albumin, pH 7.4
Experimental: as §2, §3

porcine serum albumin = porcine serum albumin (porcine, UniProt P08835 25-607); test: binding ELISA, coated albumin, pH 7.4
Experimental: as §2, §3

equine serum albumin = equine serum albumin (equine, UniProt P35747 25-607); test: binding ELISA, coated albumin, pH 7.4
Experimental: as §2, §3

mouse serum albumin [13] = biological target: T1, mouse serum albumin; test: SPR (Biacore T200), albumin amine-coupled to CM5, Affimer analyte, pH 7.4
Experimental: (§4) Affinities for mouse, human, and cynomolgus serum were also measured at pH 7.4 for four (4) AFFIMER® binders using surface plasmon resonance (SPR) (FIG. 5, Table 5). […] A concentration titration of AFFIMER® monomers was run as analyte at a flow rate of 30 μl/min or 60 μl/min. Fc2-1, Fc3-1 and Fc4-1 kinetic data was blank subtracted and fit to a 1:1 Langmuir binding model (BIAcore Evalution software; GE) to calculate KD values.

human serum albumin [14] = biological target: T2, human serum albumin; test: as above
Experimental: as §4

cynomolgus serum albumin [15] = biological target: T3, cynomolgus serum albumin; test: as above
Experimental: as §4

canine serum albumin [16] = biological target: T4, canine serum albumin; test: binding ELISA on coated albumin, pH 6.0, panel 'Canine SA Binding at pH 6.0'
Experimental: as §2, §3

human serum albumin [17] = biological target: T2, human serum albumin; test: binding ELISA on coated albumin, pH 6.0, panel 'HSA Binding at pH 6.0'
Experimental: as §2, §3

mouse serum albumin [18] = biological target: T1, mouse serum albumin; test: Octet biolayer interferometry, biotinylated albumin on SA sensors, pH 7.4
Experimental: as §1

human serum albumin [19] = biological target: T2, human serum albumin; test: as above
Experimental: as §1

cynomolgus serum albumin [20] = biological target: T3, cynomolgus serum albumin; test: as above
Experimental: as §1

mouse serum albumin [21] = biological target: T1, mouse serum albumin; test: Octet biolayer interferometry, pH 7.4
Experimental: as §1
(§5) AFFIMER® polypeptides were incubated with AcTEV for 1 hour at 30° C. as recommend by the manufacturer (Invitrogen) and removal of cleaved His tag by binding NiNTA resin (Generon) and collecting the cleaved protein flow through. […] Pharmacokinetic profile of IV-injected His tag cleaved AFFIMER® protein compared to C-terminally His-tagged AFFIMER® protein was evaluated.

human serum albumin [22] = biological target: T2, human serum albumin; test: Octet biolayer interferometry, pH 7.4
Experimental: as §1, §5

cynomolgus serum albumin [23] = biological target: T3, cynomolgus serum albumin; test: Octet biolayer interferometry, pH 7.4
Experimental: as §1, §5

mouse serum albumin [24] = biological target: T1, mouse serum albumin; test: Octet biolayer interferometry, pH 6.0
Experimental: as §1, §5

human serum albumin [25] = biological target: T2, human serum albumin; test: Octet biolayer interferometry, pH 6.0
Experimental: as §1, §5

cynomolgus serum albumin [26] = biological target: T3, cynomolgus serum albumin; test: Octet biolayer interferometry, pH 6.0
Experimental: as §1, §5

mPD-L1 = biological target: T5, mPD-L1 (mouse, UniProt Q9EP73 19-238, limits assumed); test: competition ELISA: mPD-L1 pre-incubated with the AFFIMER polypeptide and added to coated mPD-1; blocked ligand mPD-1
T5 construct: May be the same reagent as the mouse PD-L1-Fc of the Biacore run
Experimental: Briefly, PD-1 was coated overnight on the plate at 1 μg/ml in carbonate buffer. Then plates were saturated using 5% Casein/PBS buffer. […] After saturation, the mix was added to the plates and incubated for 90 minutes. Plates were then washed and the detection polyclonal antibody, biotinylated anti-PD-L1, was added. After washing the plates, streptavidin-HRP was added for 30 minutes. After a final wash, development of the reaction was performed using TMB (Pierce) and the plates were read using a plate reader at 450 nm (FIG. 26C).

mouse serum albumin [27] = biological target: T1, mouse serum albumin; test: Biacore, immobilised MSA, pH 6.0
From the text: (§6) […] Fc2-1, Fc3-1 and Fc4-1 kinetic data was blank subtracted and fit to a 1:1 Langmuir binding model (BIAcore Evalution software; GE) to calculate KD values.

human serum albumin [28] = biological target: T2, human serum albumin; test: Biacore, immobilised HSA, running buffer pH 7.4
Experimental: as §4

[29] = biological target: T6, human PD-L1-Fc (R&D Systems) chimeric protein (human, UniProt Q9NZQ7 19-239); test: Biacore single cycle kinetics on human PD-L1 Fc
T6 construct: Bought reagent; also called rhPD-L1-Fc; huPD-L1; Fc part of the bought chimera not given, not described

human serum albumin [30] = biological target: T2, human serum albumin; test: binding ELISA on coated HSA, pH 7.4
Experimental: (§7) After saturation with 5% PBS Casein pH 7.5, plates were washed and a dilution of AFFIMER® trimers or controls were incubated on the plate for 90 minutes. Plates were then washed, and a biotinylated polyclonal antibody anti-cystatin A (R&D Systems) was added for 1 hour. Plates were washed and AFFIMER® ILFs were detected using streptavidin-HRP. After a last washing step, TMB was added for the development of the experiment, and the plates were read at 450 nm.

mouse serum albumin [31] = biological target: T1, mouse serum albumin; test: binding ELISA on coated MSA, pH 7.4
Experimental: as §7

human serum albumin [32] = biological target: T2, human serum albumin; test: Biacore, immobilised HSA, running buffer pH 6.0
From the text: as §6

T6 sequence (Q9NZQ7 19-239, change not shown): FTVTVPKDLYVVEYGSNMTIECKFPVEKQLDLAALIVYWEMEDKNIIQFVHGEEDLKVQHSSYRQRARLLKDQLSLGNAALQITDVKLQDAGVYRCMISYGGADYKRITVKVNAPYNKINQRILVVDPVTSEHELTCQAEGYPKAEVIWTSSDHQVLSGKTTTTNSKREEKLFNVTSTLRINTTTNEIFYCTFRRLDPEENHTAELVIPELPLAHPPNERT
T1 sequence (P07724 25-608 limits assumed): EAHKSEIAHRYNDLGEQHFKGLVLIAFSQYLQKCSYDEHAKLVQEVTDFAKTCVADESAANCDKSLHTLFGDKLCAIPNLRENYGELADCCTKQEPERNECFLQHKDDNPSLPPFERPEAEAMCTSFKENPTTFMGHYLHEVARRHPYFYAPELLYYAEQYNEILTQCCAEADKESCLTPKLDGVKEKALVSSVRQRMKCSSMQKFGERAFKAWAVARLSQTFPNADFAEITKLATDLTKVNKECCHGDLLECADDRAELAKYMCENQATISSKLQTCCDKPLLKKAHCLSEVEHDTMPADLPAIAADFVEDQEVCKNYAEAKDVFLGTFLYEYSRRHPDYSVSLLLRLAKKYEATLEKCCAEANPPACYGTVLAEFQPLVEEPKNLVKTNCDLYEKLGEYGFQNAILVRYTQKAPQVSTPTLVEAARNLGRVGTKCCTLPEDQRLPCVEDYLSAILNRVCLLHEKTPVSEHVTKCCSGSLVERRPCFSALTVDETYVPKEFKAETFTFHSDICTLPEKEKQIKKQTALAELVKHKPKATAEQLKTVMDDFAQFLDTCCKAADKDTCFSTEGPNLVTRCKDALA
T3 sequence (A2V9Z4 25-608): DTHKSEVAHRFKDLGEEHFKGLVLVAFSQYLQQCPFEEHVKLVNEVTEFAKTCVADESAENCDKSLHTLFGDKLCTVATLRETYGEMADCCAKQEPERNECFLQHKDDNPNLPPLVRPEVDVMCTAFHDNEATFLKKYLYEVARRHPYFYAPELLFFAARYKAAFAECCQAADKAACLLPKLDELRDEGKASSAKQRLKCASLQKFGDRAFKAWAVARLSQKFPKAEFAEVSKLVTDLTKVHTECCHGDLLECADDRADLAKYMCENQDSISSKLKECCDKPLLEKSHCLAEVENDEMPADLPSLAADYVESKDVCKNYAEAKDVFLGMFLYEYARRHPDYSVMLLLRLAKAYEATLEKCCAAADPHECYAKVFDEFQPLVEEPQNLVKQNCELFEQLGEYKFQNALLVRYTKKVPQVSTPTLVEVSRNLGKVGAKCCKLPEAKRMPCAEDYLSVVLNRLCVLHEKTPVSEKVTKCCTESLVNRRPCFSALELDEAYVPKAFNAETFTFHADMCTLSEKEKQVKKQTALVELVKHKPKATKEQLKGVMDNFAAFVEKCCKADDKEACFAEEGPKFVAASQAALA
T4 sequence (P49822 25-608 limits assumed): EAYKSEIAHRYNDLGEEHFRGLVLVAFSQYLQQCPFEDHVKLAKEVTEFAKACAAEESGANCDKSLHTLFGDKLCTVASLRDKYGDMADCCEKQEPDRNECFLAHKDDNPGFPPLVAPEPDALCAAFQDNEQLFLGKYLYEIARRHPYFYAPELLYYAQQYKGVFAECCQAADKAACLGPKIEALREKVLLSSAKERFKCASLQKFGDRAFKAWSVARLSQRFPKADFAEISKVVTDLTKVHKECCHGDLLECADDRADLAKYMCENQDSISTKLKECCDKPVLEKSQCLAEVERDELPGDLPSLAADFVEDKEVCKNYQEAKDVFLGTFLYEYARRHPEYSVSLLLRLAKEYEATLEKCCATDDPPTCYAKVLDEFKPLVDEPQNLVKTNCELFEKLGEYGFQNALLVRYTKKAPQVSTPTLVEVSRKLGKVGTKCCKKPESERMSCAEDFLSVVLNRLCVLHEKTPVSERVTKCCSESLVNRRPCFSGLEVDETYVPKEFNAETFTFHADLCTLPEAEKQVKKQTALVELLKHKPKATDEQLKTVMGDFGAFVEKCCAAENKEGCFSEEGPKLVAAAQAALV
T5 sequence (Q9EP73 19-238 limits assumed): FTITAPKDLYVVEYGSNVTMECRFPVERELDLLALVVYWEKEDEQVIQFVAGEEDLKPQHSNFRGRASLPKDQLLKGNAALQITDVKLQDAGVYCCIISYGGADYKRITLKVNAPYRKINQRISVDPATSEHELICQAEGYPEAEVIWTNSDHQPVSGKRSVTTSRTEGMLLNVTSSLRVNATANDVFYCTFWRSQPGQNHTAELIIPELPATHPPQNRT
Chain of rabbit serum albumin (P49065 25-608 limits assumed): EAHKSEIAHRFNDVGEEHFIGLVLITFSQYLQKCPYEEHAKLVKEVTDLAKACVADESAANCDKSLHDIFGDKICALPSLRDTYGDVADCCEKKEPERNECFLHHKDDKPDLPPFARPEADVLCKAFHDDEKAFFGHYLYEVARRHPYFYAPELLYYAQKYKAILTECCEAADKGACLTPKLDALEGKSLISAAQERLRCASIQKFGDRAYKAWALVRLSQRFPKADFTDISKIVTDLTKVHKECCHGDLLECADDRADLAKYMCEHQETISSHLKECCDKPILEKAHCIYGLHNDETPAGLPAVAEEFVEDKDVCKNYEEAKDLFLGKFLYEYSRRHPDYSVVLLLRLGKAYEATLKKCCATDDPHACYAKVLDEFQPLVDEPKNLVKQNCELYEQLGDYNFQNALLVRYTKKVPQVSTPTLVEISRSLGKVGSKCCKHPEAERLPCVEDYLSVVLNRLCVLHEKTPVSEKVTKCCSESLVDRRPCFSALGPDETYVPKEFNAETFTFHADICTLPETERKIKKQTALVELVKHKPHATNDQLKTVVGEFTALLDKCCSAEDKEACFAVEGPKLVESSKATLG
Chain of porcine serum albumin (P08835 25-607 limits assumed): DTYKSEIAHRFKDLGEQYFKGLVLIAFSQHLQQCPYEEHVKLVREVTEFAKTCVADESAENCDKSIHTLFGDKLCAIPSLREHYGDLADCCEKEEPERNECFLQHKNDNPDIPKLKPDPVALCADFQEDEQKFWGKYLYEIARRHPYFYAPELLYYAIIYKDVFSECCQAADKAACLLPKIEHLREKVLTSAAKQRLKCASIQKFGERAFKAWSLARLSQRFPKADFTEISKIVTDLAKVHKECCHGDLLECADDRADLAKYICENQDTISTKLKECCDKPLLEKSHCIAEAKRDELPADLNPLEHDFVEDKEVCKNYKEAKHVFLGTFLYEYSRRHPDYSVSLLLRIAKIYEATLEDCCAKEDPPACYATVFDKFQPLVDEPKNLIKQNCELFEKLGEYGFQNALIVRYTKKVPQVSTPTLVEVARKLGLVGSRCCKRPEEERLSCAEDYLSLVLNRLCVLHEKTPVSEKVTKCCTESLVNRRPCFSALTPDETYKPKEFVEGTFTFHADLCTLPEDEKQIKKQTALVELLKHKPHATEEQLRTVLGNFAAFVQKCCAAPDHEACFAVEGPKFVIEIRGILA
Chain of rat serum albumin (P02770 25-608 limits assumed): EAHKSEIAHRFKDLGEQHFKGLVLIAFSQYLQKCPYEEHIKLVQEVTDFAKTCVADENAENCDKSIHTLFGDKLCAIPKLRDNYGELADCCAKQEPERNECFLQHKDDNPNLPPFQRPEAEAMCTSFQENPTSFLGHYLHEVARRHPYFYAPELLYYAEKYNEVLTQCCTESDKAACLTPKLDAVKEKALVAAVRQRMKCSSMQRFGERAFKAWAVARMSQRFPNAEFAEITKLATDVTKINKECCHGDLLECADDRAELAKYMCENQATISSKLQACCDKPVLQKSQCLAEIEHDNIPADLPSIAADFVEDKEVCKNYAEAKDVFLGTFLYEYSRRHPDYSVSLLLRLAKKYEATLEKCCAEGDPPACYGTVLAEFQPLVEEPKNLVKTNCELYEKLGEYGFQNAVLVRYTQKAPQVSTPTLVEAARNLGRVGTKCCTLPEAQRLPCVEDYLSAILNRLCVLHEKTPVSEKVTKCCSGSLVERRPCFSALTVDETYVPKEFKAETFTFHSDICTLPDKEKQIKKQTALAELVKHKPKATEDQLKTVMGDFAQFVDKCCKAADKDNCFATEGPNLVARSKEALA
Chain of equine serum albumin (P35747 25-607 limits assumed): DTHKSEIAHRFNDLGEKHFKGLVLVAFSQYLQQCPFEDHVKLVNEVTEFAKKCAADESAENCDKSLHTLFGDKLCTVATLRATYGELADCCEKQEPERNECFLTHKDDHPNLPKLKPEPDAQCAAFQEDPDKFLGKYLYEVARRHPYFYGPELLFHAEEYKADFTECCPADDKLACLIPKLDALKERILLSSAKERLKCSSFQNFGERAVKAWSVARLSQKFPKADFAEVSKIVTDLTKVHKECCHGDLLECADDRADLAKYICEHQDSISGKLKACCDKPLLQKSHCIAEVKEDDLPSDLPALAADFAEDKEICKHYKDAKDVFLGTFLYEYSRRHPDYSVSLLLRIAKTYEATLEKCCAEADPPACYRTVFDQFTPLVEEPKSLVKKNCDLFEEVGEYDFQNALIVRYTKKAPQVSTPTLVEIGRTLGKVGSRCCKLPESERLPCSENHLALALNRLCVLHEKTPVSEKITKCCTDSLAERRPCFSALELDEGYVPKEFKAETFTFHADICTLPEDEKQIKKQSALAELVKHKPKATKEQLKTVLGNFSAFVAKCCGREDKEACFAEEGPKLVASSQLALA

Kd (mouse serum albumin [1]): 435 nM
Kd (human serum albumin [2]): 132 nM
Kd (cynomolgus serum albumin [3]): 1140 nM
koff (mouse serum albumin [4]): 0.0874 s⁻¹
kon (mouse serum albumin [4]): 200000 M⁻¹ s⁻¹
koff (human serum albumin [5]): 0.00175 s⁻¹
kon (human serum albumin [5]): 15400 M⁻¹ s⁻¹
koff (cynomolgus serum albumin [6]): 0.0123 s⁻¹
kon (cynomolgus serum albumin [6]): 10800 M⁻¹ s⁻¹
Kd (mouse serum albumin [7]): 244 nM
Kd (human serum albumin [8]): 136 nM
Kd (cynomolgus serum albumin [9]): 2600 nM
EC50 (rat serum albumin): 9.73 nM
EC50 (human serum albumin [10]): 687 nM
EC50 (canine serum albumin [11]): 383 nM
EC50 (cynomolgus serum albumin [12]): 447 nM
EC50 (rabbit serum albumin): 863 nM
EC50 (porcine serum albumin): 268 nM
EC50 (equine serum albumin): 662 nM
Kd (mouse serum albumin [13]): 207 nM
koff (mouse serum albumin [13]): 0.15 s⁻¹
kon (mouse serum albumin [13]): 726000 M⁻¹ s⁻¹
Kd (human serum albumin [14]): 200 nM
koff (human serum albumin [14]): 0.00451 s⁻¹
kon (human serum albumin [14]): 22500 M⁻¹ s⁻¹
Kd (cynomolgus serum albumin [15]): 1510 nM
koff (cynomolgus serum albumin [15]): 0.16 s⁻¹
kon (cynomolgus serum albumin [15]): 106000 M⁻¹ s⁻¹
EC50 (read off the curve) (canine serum albumin [16]): ~200 nM
EC50 (read off the curve) (human serum albumin [17]): ~400 nM
kon (mouse serum albumin [18]): 215000 M⁻¹ s⁻¹
koff (human serum albumin [19]): 0.00257 s⁻¹
kon (human serum albumin [19]): 18900 M⁻¹ s⁻¹
koff (cynomolgus serum albumin [20]): 0.0505 s⁻¹
B1: HSA-36 (designed binder)
chain: MIPRGLSEAKPATPEIQEIVDKVKPQLEEKTNETYGKLEAVQYKTQVLAGHYARYWPGSTNYYIKVRAGDNKYMHLKVFNGPWAQKSKVHQADRVLTGYQVDKNKDDELTGFHHHHHH

Kd (mouse serum albumin [21]): 104 nM
Kd (human serum albumin [22]): 7.65 nM
Kd (cynomolgus serum albumin [23]): 280 nM
Kd (mouse serum albumin [24]): 38.1 nM
Kd (human serum albumin [25]): 4.71 nM
Kd (cynomolgus serum albumin [26]): 189 nM
B2: HSA-41, C-terminal 6x His tag cleaved (designed binder)
chain: MIPRGLSEAKPATPEIQEIVDKVKPQLEEKTNETYGKLEAVQYKTQVLANFFQRRWPGSTNYYIKVRAGDNKYMHLKVFNGPWKFRNTDRGADRVLTGYQVDKNKDDELTGFEQKLISEEDL
notes: also called His tag cleaved AFFIMER protein; C-terminally His tag cleaved AFFIMER lead clone

IC50 (mPD-L1): 112 nM
B3: AVA04-182 (designed binder)
chain: MIPRGLSEAKPATPEIQEIVDKVKPQLEEKTNETYGKLEAVQYKTQVLAFALPEFEYMSTNYYIKVRAGDNKYMHLKVFNGPPMIRRKNEVADRVLTGYQVDKNKDDELTGF
notes: also called its control

Kd (mouse serum albumin [27]): 108 nM
koff (mouse serum albumin [27]): 0.0326 s⁻¹
kon (mouse serum albumin [27]): 301000 M⁻¹ s⁻¹
Kd (human serum albumin [28]): 661 nM
koff (human serum albumin [28]): 0.00846 s⁻¹
kon (human serum albumin [28]): 12800 M⁻¹ s⁻¹
Kd [29]: 0.558 nM
koff [29]: 0.000331 s⁻¹
kon [29]: 594000 M⁻¹ s⁻¹
EC50 (human serum albumin [30]): 5.7 nM
EC50 (mouse serum albumin [31]): 134 nM
Kd (human serum albumin [32]): 67.8 nM
koff (human serum albumin [32]): 0.00339 s⁻¹
kon (human serum albumin [32]): 50100 M⁻¹ s⁻¹
B4: AVA04-251 XT60 (designed binder)
chain: MIPRGLSEAKPATPEIQEIVDKVKPQLEEKTNETYGKLEAVQYKTQVLAREGRQDWVLSTNYYIKVRAGDNKYMHLKVFNGPWVPFPHQQLADRVLTGYQVDKNKDDELTGFAEAAAKEAAAKEAAAKEAAAKEAAAKEAAAKMIPRGLSEAKPATPEIQEIVDKVKPQLEEKTNETYGKLEAVQYKTQVLAREGRQDWVLSTNYYIKVRAGDNKYMHLKVFNGPWVPFPHQQLADRVLTGYQVDKNKDDELTGFAEAAAKEAAAKEAAAKEAAAKEAAAKEAAAKMIPRGLSEAKPATPEIQEIVDKVKPQLEEKTNETYGKLEAVQYKTQVLADWWQAKWPHSTNYYIKVRAGDNKYMHLKVFNGPYKVHQSSGGADRVLTGYQVDKNKDDELTGFHHHHHH
